Consider one substance from patent US20260265347A1.

pKd: −log10 of the molar value.

In this test the target is biotinylated VP1 pentamer of BKV genotype I (BK virus genotype I) (UniProt P03088). Nature of the test: BLI, biotinylated VP1 pentamer on streptavidin sensor, mAb 0 to 40 nM. In general terms: Biolayer interferometry detects binding as a change in optical thickness at a sensor tip.

By pKd is commonly meant the negative decadic logarithm of the Kd, by convention in mol/L. A lower pKd goes with a high Kd. Substance “MTX005 from Memo Therapeutics AG (referred as 319C07 in WO2021/250097) (antibody)” gave a pKd of 7.75.
